# Source: the RNAGym collection of RNA variant scans (doi:10.1073/pnas.2313332121)
# Fewer inactive variants are shown than the library holds.
# B1: TPR 5TU (parent)
# chain: GGAUCUUCUCGAUCUAACAAAAAAGACAAAUCUGCCACAAAGCUUGAGAGCAUCUUCGGAUGCAGAGGCGGCAGCCUUCGGUGGCGCGAUAGCGCCAACGUUCUCAACUAUGACACGCAAAACGCGUGCUCCGUUGAAUGGAGUUUAUCAUG
# Variants of: B1
# Experiment: polymerase ribozyme fitness, log enrichment relative to wild type (log ratio); higher = more active; in vitro selection for triplet polymerase activity
# How it was run: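 PCR was used to build mutant libraries for each subunit of a heterodimeric triplet polymerase ribozyme, which were then transcribed. A single in vitro selection round, in triplicate, used a frozen incubation at −7 °C and recovered extended constructs by gel excision, streptavidin beads and RT-PCR. Fitness is the logarithm of genotype enrichment relative to wild-type enrichment, averaged over replicates with inverse-variance weights. The logarithm is base 2, and after Illumina sequencing only genotypes with ≥10 input reads and ≥1 read per output were kept.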
row,Variant,polymerase ribozyme fitness (log ratio)
1,GGAUCUUCUCGAUGUAACAAAAAAGACAAAUCUGCCACAAAGCUUGAGGGCAUCUUCGGAUGCAGAGGCGGCAGCCUUCGGUGGCGCGAUAGCGCCAACGUUCUCAACUAUGACACGCAAAACGCGUGCUCCGUUGAAUGGAGUUUAUCAUG,-2.92
2,GGAUCUUCUCGAUGUAACAAAAAAGACAAAUCUGCCACAGCGCUUGAGAGCAUUUUCGGAUGCAGAGGCGGCAGCCUUCGGUGGGGCGAUAGCGCCAAUGUUCUCAACUAUGACACGCAAAACGCGUGCUCCGUUGAAUGGAGUUUAUCAUG,≤ -4.2
3,GGAUCUUCUCGAUGUAAUAAAAAAGACAAAUCUGCCACAAAGCUUGAGAGCGUCUUCGGAUGCAGAGGCGGCAGCCUUCGUUGGCGCGAUAACGCCAACGUUCUCAACUAUGACACGCAAAACGCGUGCUGCGUUGAAUGGAGUUUAUCAUG,≤ -4.2
4,GGAUCUUCUCGAUGUAAUAAAAAAGACAAAUCUGCCACAAAGCUUGAGAGCAUCUUCGGAUGCAGAGGCGGCAGCCUUCGGUGGCGCGAUAGCGCCAACGUUCUCAACUAUGACACGCAAAACGCGUGCUCCGUUGAAUGGAGUUUAUCAUG,-1.18
5,GGAUCUUCUCGAUGUAAUAAAAAAGACAAAUCUGCCAUAAAGCUUGAGAGCACCUUCAGAUGCAGAGGCGGCAGCCUUCGGUGGCGCGAGAGGGCCAACGUUCUCAACUAUGACCCGUAAAACGCGUGCUCCGUUGUAUGGAGUUUAUCAUG,≤ -4.2
6,GGAUCUUCUCGAUGUAACAAAAAAGACAAAUCUGCCACAAAGCUUGAGAGCAUCUUCGGAUGCAGAGGCGGCAGCCUUCGGUGGCGCGUUAGCGCCAAAGUUCUCACCUAUGACACGCAAAACGCGUGCUCCGUUGAAUGGAGUUUAUCAUG,≤ -4.2
7,GGAUCUUCUCGAUGUAACAAAAAAGACAAAUCUGCCACAAAGCUUGAGAGCAUCUUCGGAUGCAGAGGCGGCGGCCUUCGGUGGCGCCAUAGCGCCAUGGUUCUCAACUAUGACACGCAAAACGCGUGCUCCGUUGAAUGGAGUUUAUCAUG,≤ -4.2
8,GGAUCUUCUCGAUGUAACAAAAAAGACAAAUCUGCCACUAAGCUUGAGAGCAUCUUCAGAGGCAGAGGCGGCAGCCUUCGGUGGUGCGAUAGCGUCAACGUUCUCACCUAUGACACGCAAAACGCGUGCUCCGUUGAAUGCAGUUCAUCAUG,≤ -4.2
9,GGAUCUUCUCGAUGUAACAAAAAAGACAAAUCUGCCACAAAGCUUGAGAGCGUCUUCGGAUGCAGAGGCGGCAGUCUUCGGUGGUGCGAUAGCGCCAACGUUCUCAACUAUGACACGCAAAACGCGUGCUCCGUUGAAUGGAGCUUAUCAUG,-3.71
10,GGAUCUUCUCGAUGUAACAAAAAAGACAAGUCUGCCACAAAGCUUCAGAGCAUCUUCGGAUGCAGAGGCGGCAGCCUUCGGUGGCGCGAUAGCGUCAACGUUCUCAACUAUGACACGCAAAACGCGUGCUCCGUUGAAUGGAGUUUAUCAUG,-4.17
11,GGAUCUUCUCGAUGUAACAAAAAAGACAAAUCUGCCACUAAGCUUGAGAGCAUCGUCGGAUGCAGAGGCGGCAGCCUUCGGUGGCGCGAUAGCGUCAACGUUCUCAACUAUGACACGCAAAACGCGUGCUCCGUUGAAUGGAGUUUAUCAUG,≤ -4.2
12,GGAUCUUCUCGAUGUAACAAAAAAGACACAUCUGCCACAAAGCUUGAGAGCAACUUCGGAUGCAGAGGCGGCAGCCUUCGGUGGCGCGAUAGCGUCAACGUUCUCAACUAUGAUACGCAAAACGCGUGCUCCGUUGAAUAGAGUUUAUCAUG,-3.68
13,GGAUCUUCUCGAUGUAACAAAAAAGACAAAUCUGCCACAAAGCUUGAGAGCAUCUUCGGAUGCAGAGGCGGCAGCCUUCGGUGGCGCGAUAGCGCCAACGUUCUCAACUAUGACACGCAAAACGCGUGCUCCGUUGUAUGGAGUUUAUCAUG,≤ -4.2
14,GGAUCUUCUCGAUGUAAUAAAAAAGACAAAUCUGCCACAAAGCUUGAGAGCAUCUUCGGAUGCAGAGGCGGCAGCCUUCGGUGGCGCGAUACCGCCAACGUUCUCAACUAUGACACGCAAAACGCGUGCUCCGUUGAAUGGAGUUUAUCAUG,-2.89
15,GGAUCUUCUCGAUGUAAUAAAAAAGACAAAUCUGCCACAAAGCUUGAGAGCAUCUUUGGAUGCAAAGGCGGCAGCCUUCGGUAGCGCGAUAGCGCCAACGUUCUCCACUAUGACACUCAAAACGCGUGCUCCGUUGAAUGGAGUUUAUCAUG,≤ -4.2
16,GGAUCUUCUCGAUGUAACAAAAAAGACAGAUCUGCCACAAAGCUUGAGAGCAUUUUCGGAUGCAGAGGCGGCAGCCUUCGGUGGCGCGAUAGCGCCAACGUUCUCAACUAUGACACGCAAAACGCGUGCUCGGUUGAAUGGAGUUUAUCAUG,≤ -4.2
17,GGAUCUUCUCGAUGUAACAAAAAAGACAAAUCUGCCACAAAGCUUGAGAGCAUCUUCGGAUGCAGAGGCGGCAGCCUUCGGUGGCGCGAUAGCGCCUGCGUUCUCAACUAUGACACGCAAAACGCGUGCUCCGUUGAAUGGAGUUUAUCAUG,-2.74
18,GGAUCUUCUCGAUGUAACAAAAAAGACAAAUCUGCCACAAAGCUUGAGAGCAUCUUCGGAUGCAGAGGCGGCAGCCUUCGGUGGCGCGAUAGCGCCAACGUUCUCCACUAUGACACGAAAAAUGCGUGCUCCGUUGAAUGGAGUUUAUCAUG,-4.16
19,GGAUCUUCUCGAUGUAAGAAAAAAGACAAAUCUGCCACAAAGCUUGAGAGCAUCUUCGGAUGCAGAGGCGGCAGCCUUCGGGGCCGCGAUAGCGCCAACGUUCUCAACUAUGACACGCAAAACGCGUGCUCCGUUGAAUGGAGUUUAUCAUG,≤ -4.2

row,Variant,polymerase ribozyme fitness (log ratio)
1,GGAUCUUCUCGAUGUAAUAAGAAAGACAAAUCUGCCACAAAGCUUGAGAGCAUCUUCGGAUGCAGAGGCGGCAGCCUUCGGUGGCCCGAUAGCGCCAACGUUCUUAACUAUGACACGCAAAACGCGUGACCCGUUGAAUGGAGUUUAUCAUG,≤ -4.2
2,GGAUCUUCUCGAUGUAACAAAAAAGACGAAAUUACCACAAACCUUGAGAGCAUCGUCGGAUGCAGAGGCGGCAGCCUUCGGUGGCGCGAUAGCUCCAACGUUCUCAACUAUGACACGCAAAACGCGUGCUCCGUUGAAUGGAGUUUAUCAUG,≤ -4.2
3,GGAUCUUCUCGAUGUAACAAAAAAGACAAAUCUGCCCCAAAGCUUGAGAGCAUCUUCGGAUGCAGAGGCGGCAGCCUUCGGUGGCGCGAUAGCGCCAACGUUCUCAACUAUGACACGCAAAACGCGUGCUCCGUUGAAUGGAGUUUAUCAUG,-3.05
4,GGAUCUUCUCGAUGUAACAAAAAAGACAAAUCUGCCACAAAGCUUGAGAGCAUCUUCGGAUGCAGAGGCGGCAGCCUUCGGUGGCGCGAUUGGGCCAACGUUCUCAACUAUGACACGCAAAACGAGUGCUCCGUUGAAUGGAGUUUAUCAUG,≤ -4.2
5,GGAUCUUCUCGAUGUAACAAAAAAGACGAAUCUGCCACAAAGCUUGAGAGCAACUUCGGAUGUAGAGGCGGCAGCCUUCGGUGGCGCGCUAGCGCCAACGUUCUCUACUAUGACACGCAAAACGCAUGCUCCGUUGAAUGAAGUUUAUCAUG,≤ -4.2
6,GGAUCUUCUCGAUGUAACAAAAAAGACAAAUCUGCCACAAAGCUUGAGAGCAUCUUCGGAUGCAGAGGCGGCGGCCUUGGGUGGCGCGAUAGCGCCAGCGUUCUCAACUAUGACACGCAAAACGCGUGCUCCGUUGAAUGGACUUUAUCAUG,≤ -4.2
7,GGAUCUUCUCGAUGUAACAAAAAAGACAAAUCUGCCACAUAGUUUAAGACCAUCUUCGGAUGCAGAGGCGGCAGCCUUCGGUGGUGCGAUAGCGCCAACGUUCUCAACUAUAACACGCAAAACGCGUGCUCCGUUGAAUGGAGUUUAUCAUG,≤ -4.2
8,GGAUCUUCUCGAUGUAACAAAAAAGACAAUUCGGCCACAAAGCUUGAGCGCUUCUUCGGAUGCAGAGGCGGGGGCCUUCGGUGGCGUGAUAGCGCCAACGUUCUCAACUAUGACACGCAAAACGCGUGCUCCGUUGAAUGGAGGUUAUCAUG,≤ -4.2
9,GGAUCUUCUCGAUGUAACAAAAAAGACAAUUCUGCCACAACGUUUGAGACCAUCGUCGGAUGCAGAGGCGGCAGGCUUCGGUGGCGCGAUAGCGCCAACGUUCUCAACUAUGACACGUCAAACGCGUGCUCCGUUGAAUGGAGUUUAUCAUG,≤ -4.2
10,GGAUCUUCUCGAUGUAACAAAAAAGACAAAUCUGCCACAAUGCUUGAGAGCAUCUUCGGAUCCAGAGGCGGCAGCCUUCGGUGGCGCGAUAGCGUAAACGUUCUCAACUAUUACACGCAAAACGCGUGCUCCGUUGAAUGGUGUUAAUCGUG,≤ -4.2
11,GGAUCUUCUCGAUGUAACAAAAAAGACAAAUCUGCCACACAGCUUGAGAGCAUCAUCGGAUGCAGAGGCGGCAGCCUUCGCUGGCGCGAUAGCGCCAACGUUCUCAACUAUGACACGCAAAACGCAUGCUCCGUUGAAGAGAGUUUAUCAUG,≤ -4.2
12,GGAUCUUCUCGAUGUAACAAAAAAGACAAAUCUGCCACAAAGCUUGAGAGCAUCUUCGGAUGCAGAGGCGGCAGCCUUCGGUGGCGCGAUUGCGCCAACGUUCUCAACUAUGACACGCAAAACGCGUGCUCCGUUGAAUGGAUUUUAUCAUG,-3.88
13,GGAUCUUCUCGAUGUAACAAAAAAGACAAUUCUGCCACAAAGCUUGAGAGCAUCUUCGGAAGCAGAGGCGGCAGCCUUCGGUGGCGCGAUAACGCCAAAGUUCUCAACUAUGACGCGCAAAACGCGUGCUCCGUUGAAUGGAGUUUAUCAUG,≤ -4.2
14,GGAUCUUCUCGAUGUAACAAAAAAGACUAAUCUGCCACAAAGCUUGAGAGCAUCGUCGGAUGCAGAGGCGGCAGCCUUCGGUGGCGCGUUAGCGCAAACGUUCUCAACUAUGACACGCAAAACGCAUCCUCCGUUGAAUCGAGUUUAUCAUG,≤ -4.2
15,GGAUCUUCUCGAUGUAACAAAAAAGACAAAUCUGCCACAUAGCUUGAGAGCAUCUUCGGAUGCAGAGGCGGCGGCCUUCGGUGGCGCGAUAGCGCCAACGUUCCCAACUAUGACACGCAAAACGCGUGCUCCGUUGAAUGGAGUUUAUCAUG,≤ -4.2
16,GGAUCUUCUCGAUGUAACAAAAAAGACAAAUCUGCCACAGAGCUUGAGAGCAUCUUCGGAUGCAGAGGCGGCGGCCUUCGGUGGUGCGAUAGCGCCAACGUUCUCAACUAUGACACGCAAAACGCGUGCUCCGUUGAAAGGAGUUUAUCAUG,≤ -4.2
17,GGAUCUUCUCGAUGUAACAAAAAAGACAAAUCUGCCACACAGCUUGAGAGCAUCUUGGGAUGCAGAGGCGGCAGCCUUCGGUGGCGCGAUAGCGCCAACGUUCUCAACUAUGACACGCAAAACGCGUGCUCCGUUGAAUGGAGUUUAUCAUG,-2.31
18,GGAUCUUCUCGAUGUAACAAAAAAGACAAAUCUGCCACAAAGCUUGAGAGCAUCUUCGGAUGCAGAGGCGGCAGCCUUCGGUGGCGCGAUUGCGCCGACGUUCUCAACUAUGACACGCAAAACGCGUGCUCCGUUGAAUGGAGUUUAUCAUG,-3.96
19,GGAUCUUCUCGAUGUAACAAAAAAGACAAUUCUGCCACAAAGCUUGAGAGCAUCUUCGGAAGCAGAGGCGGCAGCCUUCGGUGGCGCGAUAACGCCAAAGUUCUCAACUAUGACACGCAAAACGCGUGCUCCGUUGAAUGGAGUUUAUCAUG,≤ -4.2
